The source of these data is patent US12281181.

Numbered stars: 1 amine (or outer) side, 2 acyl side, 3 side chain; on linkers, the order of the positions; unused ones are H or OH. Bridge positions count the residues as written; N and C are the ends. Square brackets hold non-standard residues; d marks the D form. Ends that are not written are not given here. Trimesoyl = O=C(c1cc(C(=O)[*:2])cc(C(=O)[*:3])c1)[*:1]; 2Nal = N[C@@H](Cc1ccc2ccccc2c1)C(=O)O; Dap = NC[C@H](N)C(=O)O; βAla = NCCC(=O)O Bounds are passed on as bounds.

For orientation: IC50 means the point on the concentration scale where inhibition reaches its midpoint. A word on the Kd: it is the constant that tells how readily two partners part at equilibrium.

To fix the notation:
B1: peptide 2 (peptide)
peptide: GWIY[Dap]F[2Nal]RRR[Dap][βAla][βAla]K
modifications: linker (positions not given here) via trimesic acid; not fully specified (bridges); printed as Tm(GWIY)Δ(FΦRRRΔ)-BBK
B2: peptide 21 (peptide)
peptide: GAAAA[Dap]F[2Nal]R[dR]R[Dap][βAla][βAla]K
modifications: linker (positions not given here) via trimesic acid; not fully specified (bridges); printed as Tm(GAAAA)Δ(FΦRrRΔ)-BBK
B3: peptide 20 (peptide)
peptide: GAIAA[Dap]F[2Nal]R[dR]R[Dap][βAla][βAla]K
modifications: linker (positions not given here) via trimesic acid; not fully specified (bridges); printed as Tm(GAIAA)Δ(FΦRrRΔ)-BBK
B4: peptide 10 (peptide)
peptide: [dA]GWIY[Dap]F[2Nal]R[dR]R[Dap][βAla][βAla]K
modifications: linker (positions not given here) via trimesic acid; not fully specified (bridges); printed as Tm(aGWIY)Δ(FΦRrRΔ)-BBK
B5: peptide 18 (peptide)
peptide: GWIYA[Dap]F[2Nal]R[dA]R[Dap][βAla][βAla]K
modifications: linker (positions not given here) via trimesic acid; not fully specified (bridges); printed as Tm(GWIYA)Δ(FΦRaRΔ)-BBK
B6: peptide 14 (peptide)
peptide: GWIAA[Dap]F[2Nal]R[dR]R[Dap][βAla][βAla]K
modifications: linker (positions not given here) via trimesic acid; not fully specified (bridges); printed as Tm(GWIAA)Δ(FΦRrRΔ)-BBK
B7: peptide 17 (peptide)
peptide: GWIYA[Dap]F[2Nal]A[dR]R[Dap][βAla][βAla]K
modifications: linker (positions not given here) via trimesic acid; not fully specified (bridges); printed as Tm(GWIYA)Δ(FΦArRΔ)-BBK
B8: peptide 6 (peptide)
peptide: GWIY[Dap]F[2Nal]R[dR]R[Dap][βAla][βAla]K
modifications: linker (positions not given here) via trimesic acid; not fully specified (bridges); printed as Tm(GWIY)Δ(FΦRrRΔ)-BBK
B9: peptide 9 (peptide)
peptide: AGWIY[Dap]F[2Nal]R[dR]R[Dap][βAla][βAla]K
modifications: linker (positions not given here) via trimesic acid; not fully specified (bridges); printed as Tm(AGWIY)Δ(FΦRrRΔ)-BBK
B10: peptide 11 (peptide)
peptide: AWIYA[Dap]F[2Nal]R[dR]R[Dap][βAla][βAla]K
modifications: linker (positions not given here) via trimesic acid; not fully specified (bridges); printed as Tm(AWIYA)Δ(FΦRrRΔ)-BBK
B11: peptide 5 (peptide)
peptide: GWIY[Dap]F[2Nal]RRR[Dap][dR][βAla]K
modifications: linker N-5-11 via Trimesoyl; not fully specified (N-terminus); printed as Tm(GWIY)Δ(FΦRRRA)-rBK
notes: Bicyclic peptide; D-arginine outside the B ring
B12: peptide 13 (peptide)
peptide: GWAYA[Dap]F[2Nal]R[dR]R[Dap][βAla][βAla]K
modifications: linker (positions not given here) via trimesic acid; not fully specified (bridges); printed as Tm(GWAYA)Δ(FΦRrRΔ)-BBK
B13: peptide 12 (peptide)
peptide: GAIYA[Dap]F[2Nal]R[dR]R[Dap][βAla][βAla]K
modifications: linker (positions not given here) via trimesic acid; not fully specified (bridges); printed as Tm(GAIYA)Δ(FΦRrRΔ)-BBK
B14: peptide 19 (peptide)
peptide: GWIYA[Dap]F[2Nal]R[dR]A[Dap][βAla][βAla]K
modifications: linker (positions not given here) via trimesic acid; not fully specified (bridges); printed as Tm(GWIYA)Δ(FΦRrAΔ)-BBK
B15: peptide 4 (peptide)
peptide: GWIY[Dap]F[2Nal]RRR[Dap]R[βAla]K
modifications: linker N-5-11 via Trimesoyl; not fully specified (N-terminus); printed as Tm(GWIY)Δ(FΦRRRA)-RBK
notes: Bicyclic peptide; 4th arginine outside the B ring
B16: peptide 15 (peptide)
peptide: GWIYA[Dap]A[2Nal]R[dR]R[Dap][βAla][βAla]K
modifications: linker (positions not given here) via trimesic acid; not fully specified (bridges); printed as Tm(GWIYA)Δ(AΦRrRΔ)-BBK
B17: peptide 3 (peptide)
peptide: GWIY[Dap]F[2Nal]RRRR[Dap][βAla][βAla]K
modifications: linker (positions not given here) via trimesic acid; not fully specified (bridges); printed as Tm(GWIY)Δ(FΦRRRRΔ)-BBK
B18: peptide 16 (peptide)
peptide: GWIYA[Dap]FAR[dR]R[Dap][βAla][βAla]K
modifications: linker N-6-12 via Trimesoyl; not fully specified (N-terminus); printed as Tm(GWIYA)Δ(FARrRΔ)-BBK
notes: Alanine-scan variant of peptide 7
B19: peptide 7 (peptide)
peptide: GWIYA[Dap]F[2Nal]R[dR]R[Dap][βAla][βAla]K
modifications: linker N-6-12 via Trimesoyl; not fully specified (N-terminus); printed as Tm(GWIYA)Δ(FΦRrRΔ)-BBK
B20: fluorescently labeled peptide 7 (peptide)
peptide: GWIYA[Dap]F[2Nal]R[dR]R[Dap][βAla][βAla]K
modifications: linker (positions not given here) via trimesic acid; not fully specified (bridges); printed as Tm(GWIYA)Δ(FΦRrRΔ)-BBK; also: FITC label, site not given here

T1 sequence (Q9Y6K9 1-196): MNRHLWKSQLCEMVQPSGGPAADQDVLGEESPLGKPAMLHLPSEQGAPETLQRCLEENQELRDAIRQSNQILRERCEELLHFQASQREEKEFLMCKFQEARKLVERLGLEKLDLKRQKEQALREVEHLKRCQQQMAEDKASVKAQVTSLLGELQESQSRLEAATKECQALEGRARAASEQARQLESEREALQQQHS

The first experiment concerns the target T1, Recombinant GST-NEMO (NEMO(1-196)) (UniProt Q9Y6K9 1-196, biotinylated in the library screen).
T1 construct: range 1-196; Expressed in E. coli BL21(DE3); also called NF-κB essential modulator; IKKγ; not shown: glutathione S-transferase (GST) tag encoded by the pGEX4T3 vector
In words: HTRF competition, GST-NEMO + biotin-IKKβKK/RR(701-745). In general terms: TR-FRET usually uses a lanthanide donor and a delayed reading to cut background.
With B1, the IC50 lay in the range of 3400 to 28000 nM.

Another experiment concerns the target T1, Recombinant GST-NEMO (NEMO(1-196)). In words: HTRF competition IC50 against peptide 7.
With B2, the fold lower NEMO-binding affinity against peptide 7 is above 100 fold.

On to B3, for which the fold lower NEMO-binding affinity against peptide 7 worked out at 16 fold.

For the next experiment the target is unchanged. In words: HTRF competition, GST-NEMO + biotin-IKKβKK/RR(701-745), peptide 0-100 µM.
For the molecule B4, the half-inhibitory concentration (IC50) is 2300 nM.

Consider B5, for which the IC50 stood at 2100 nM.

As to B6, the IC50 was determined as 2800 nM.

For B7, the half-inhibitory concentration (IC50) was determined as 1100 nM.

For B1, the IC50 stood at 3400 nM.

As for B8, the IC50 came to 5900 nM.

As for B9, the IC50 came out at 2200 nM.

Turning to GWIY[dA][Dap]F[2Nal]R[dR]R[Dap][βAla][βAla]K (linker N-6-12 via Trimesoyl) [peptide 8], the IC50 was found to be 2900 nM.

On to B10, for which the IC50 came out at 1200 nM.

Consider B3, for which the IC50 was determined as 16000 nM.

As to B11, the IC50 is 1300 nM.

In the case of B12, the IC50 was determined as 1700 nM.

On to B13, for which the IC50 is 3000 nM.

Turning to B14, the IC50 is 1200 nM.

As to B15, the IC50 was found to be 1800 nM.

Take B16: the IC50 was 1900 nM.

As for B17, the IC50 amounted to 1500 nM.

In the case of B18, the IC50 was determined as 2800 nM.

For B19, the IC50 was 1000 nM.

The target is the same in a further experiment. In words: HTRF competition IC50, alanine scan against peptide 7.
As for B12, the fold decrease in potency against peptide 7 is 2 to 3 fold.

As for B13, the fold decrease in potency against peptide 7 was 2 to 3 fold.

For a further experiment, the target named is NEMO (endogenous, inside cultured cells) (UniProt Q9Y6K9 1-419). In words: cell-based or functional assay.
Chain of NEMO (endogenous, inside cultured cells) (Q9Y6K9 whole entry): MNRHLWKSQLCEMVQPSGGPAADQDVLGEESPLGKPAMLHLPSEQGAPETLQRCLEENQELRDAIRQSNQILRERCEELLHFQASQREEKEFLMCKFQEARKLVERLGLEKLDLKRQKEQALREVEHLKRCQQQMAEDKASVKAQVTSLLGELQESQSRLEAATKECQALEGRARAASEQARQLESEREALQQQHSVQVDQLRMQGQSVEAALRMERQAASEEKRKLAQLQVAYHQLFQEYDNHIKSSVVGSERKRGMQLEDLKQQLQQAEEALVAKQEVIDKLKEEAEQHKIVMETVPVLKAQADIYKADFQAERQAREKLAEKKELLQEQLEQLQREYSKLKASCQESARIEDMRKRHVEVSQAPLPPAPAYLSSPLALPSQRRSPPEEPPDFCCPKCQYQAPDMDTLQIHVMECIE
Consider B19, for which the “inhibition of TNFα-induced NF-κB activation, luciferase in HEK293(Luc) cells, IC50” value amounted to 10000 nM.

A further experiment deals with T1, Recombinant GST-NEMO (NEMO(1-196)). Description: fluorescence anisotropy (FA), direct binding. A general note: Fluorescence polarisation rises when a labelled molecule tumbles more slowly, as on binding a larger partner.
On to B20, for which the Kd was 220 nM.

For another experiment the target is unchanged. In words: HTRF competition IC50, peptide 7 against peptide 6.
Consider B19, for which the fold increase in binding affinity against peptide 6 was found to be 5.9 fold.
